The values that follow come from patent publication US20230340128A1.

Numbering of substitutions follows the chain as printed.

To fix the notation:
B1: XENP32940 (bispecific antibody, part only; not given: anti-CD3 scFv-Fc arm, constant regions, V domains shown, not shown: another chain or arm of the molecule; a dimerising Fc or GST; small tags and cut ends)
VH: QVQLVQSGAEVKKPGASVKVSCKASGYTFTSYWMHWVRQAPGQGLEWMGWIHPNSDNTIYYEKFQGRVTMTVDKSISTAYMELSRLRSDDTAVYYCAIIITPVVPKFDYWGQGTLVTVSS
VL: DIVMTQSPDSLAVSLGERATINCKASHDVGTSVAWYQQKPGQSPKLLIYWASTRHTGVPDRFTGSGSGTDFTLTISSLQAEDVAVYFCQQYSSFPLTFGAGTKLEIK
B2: XENP32939 (bispecific antibody, part only; not given: anti-CD3 scFv-Fc arm, constant regions, V domains shown, not shown: another chain or arm of the molecule; a dimerising Fc or GST; small tags and cut ends)
VH: B1 VH
VL: B1 VL with T31Q, F94Y
B3: XENP32943 (bispecific antibody, part only; not given: anti-CD3 scFv-Fc arm, constant regions, V domains shown, not shown: another chain or arm of the molecule; a dimerising Fc or GST; small tags and cut ends)
VH: B1 VH
VL: B1 VL with F94I
B4: XENP32938 (bispecific antibody, part only; not given: anti-CD3 scFv-Fc arm, constant regions, V domains shown, not shown: another chain or arm of the molecule; a dimerising Fc or GST; small tags and cut ends)
VH: B1 VH with W50M, E62Y
VL: B1 VL with S92Y, F94Y
B5: XENP31701 (bispecific antibody, part only; not given: anti-CD3 scFv-Fc arm, constant regions, V domains shown, not shown: another chain or arm of the molecule; a dimerising Fc or GST; small tags and cut ends)
VH: B1 VH with W50M
VL: B1 VL with F94Y
B6: XENP32560 (bispecific antibody, part only; not given: anti-CD3 scFv-Fc arm, constant regions, V domains shown, not shown: another chain or arm of the molecule; a dimerising Fc or GST; small tags and cut ends)
VH: B1 VH with W50M
VL: B1 VL with H27Q, F94Y
B7: XENP32557 (bispecific antibody, part only; not given: anti-CD3 scFv-Fc arm, constant regions, V domains shown, not shown: another chain or arm of the molecule; a dimerising Fc or GST; small tags and cut ends)
VH: B1 VH with W50M, T101S
VL: B1 VL with F94Y
B8: XENP32554 (bispecific antibody, part only; not given: anti-CD3 scFv-Fc arm, constant regions, V domains shown, not shown: another chain or arm of the molecule; a dimerising Fc or GST)
VH: B1 VH with W50M, N54Q
VL: B1 VL with F94Y
B9: XENP32551 (bispecific antibody, part only; not given: anti-CD3 scFv-Fc arm, constant regions, V domains shown, not shown: another chain or arm of the molecule; a dimerising Fc or GST; small tags and cut ends)
VH: B1 VH with W33Y, W50M
VL: B1 VL with F94Y
B10: XENP32553 (bispecific antibody, part only; not given: anti-CD3 scFv-Fc arm, constant regions, V domains shown, not shown: another chain or arm of the molecule; a dimerising Fc or GST; small tags and cut ends)
VH: B1 VH with W50M, H52N
VL: B1 VL with F94Y
B11: XENP32564 (bispecific antibody, part only; not given: anti-CD3 scFv-Fc arm, constant regions, V domains shown, not shown: another chain or arm of the molecule; a dimerising Fc or GST; small tags and cut ends)
VH: B1 VH with W50M
VL: B1 VL with V33L, F94Y
B12: XENP32566 (bispecific antibody, part only; not given: anti-CD3 scFv-Fc arm, constant regions, V domains shown, not shown: another chain or arm of the molecule; a dimerising Fc or GST; small tags and cut ends)
VH: B1 VH with W50M
VL: B1 VL with T56S, F94Y
B13: XENP32570 (bispecific antibody, part only; not given: anti-CD3 scFv-Fc arm, constant regions, V domains shown, not shown: another chain or arm of the molecule; a dimerising Fc or GST; small tags and cut ends)
VH: B1 VH with W50M, D56G
VL: B1 VL with D28S, F94Y
B14: XENP32556 (bispecific antibody, part only; not given: anti-CD3 scFv-Fc arm, constant regions, V domains shown, not shown: another chain or arm of the molecule; a dimerising Fc or GST; small tags and cut ends)
VH: B1 VH with W50M, I98R
VL: B1 VL with F94Y
B15: XENP32559 (bispecific antibody, part only; not given: anti-CD3 scFv-Fc arm, constant regions, V domains shown, not shown: another chain or arm of the molecule; a dimerising Fc or GST; small tags and cut ends)
VH: B1 VH with W50M
VL: B1 VL with A25S, F94Y
B16: XENP32555 (bispecific antibody, part only; not given: anti-CD3 scFv-Fc arm, constant regions, V domains shown, not shown: another chain or arm of the molecule; a dimerising Fc or GST; small tags and cut ends)
VH: B1 VH with W50M, D56G
VL: B1 VL with F94Y
B17: XENP32550 (bispecific antibody, part only; not given: anti-CD3 scFv-Fc arm, constant regions, V domains shown, not shown: another chain or arm of the molecule; a dimerising Fc or GST; small tags and cut ends)
VH: B1 VH with S31G, W50M
VL: B1 VL with F94Y
B18: XENP32565 (bispecific antibody, part only; not given: anti-CD3 scFv-Fc arm, constant regions, V domains shown, not shown: another chain or arm of the molecule; a dimerising Fc or GST; small tags and cut ends)
VH: B1 VH with W50M
VL: B1 VL with H55E, F94Y
B19: XENP32569 (bispecific antibody, part only; not given: anti-CD3 scFv-Fc arm, constant regions, V domains shown, not shown: another chain or arm of the molecule; a dimerising Fc or GST; small tags and cut ends)
VH: B1 VH with W50M, N54Q
VL: B1 VL with D28S, F94Y
B20: XENP32558 (bispecific antibody, part only; not given: anti-CD3 scFv-Fc arm, constant regions, V domains shown, not shown: another chain or arm of the molecule; a dimerising Fc or GST; small tags and cut ends)
VH: B1 VH with W50M, K106R
VL: B1 VL with F94Y
B21: XENP32568 (bispecific antibody, part only; not given: anti-CD3 scFv-Fc arm, constant regions, V domains shown, not shown: another chain or arm of the molecule; a dimerising Fc or GST; small tags and cut ends)
VH: B1 VH with W50M
VL: B1 VL with F94T

One test concerns the target human mesothelin (MSLN) (human) (UniProt Q13421). As to the kind of experiment: BLI (Octet), multiple concentrations, bsAb in 1+1 Fab-scFv-Fc format. For orientation: In BLI a coated tip is dipped into the sample, and binding shifts an interference pattern.
On to B1, for which the equilibrium dissociation constant (Kd) – broadly, the constant that tells how readily two partners part at equilibrium – turned out to be 246 nM; the Response turned out to be 0.136; the koff – broadly, a measure of how fast the partners let go of each other – was 0.0816 s⁻¹; the association rate constant (kon) – broadly, the second-order rate constant of association – is 332000 M⁻¹ s⁻¹.

The molecule B2 gave a dissociation constant (Kd) of 90.4 nM, a Response of 0.202, a koff of 0.0383 s⁻¹ and a kon of 424000 M⁻¹ s⁻¹.

In turn, B3 showed a Response of 0.0022.

B4 registered a Kd of 16.2 nM, a Response of 0.169, a koff of 0.0103 s⁻¹ and a kon of 635000 M⁻¹ s⁻¹.

Another test has the same target. As to the kind of experiment: BLI (Octet), bsAb in 1+1 Fab-scFv-Fc format.
For the molecule B5, the Kd was determined as 0.0805 nM, the Response was determined as 0.86, the off-rate (koff) came to 4.69e-05 s⁻¹ and the on-rate constant (kon) came out at 583000 M⁻¹ s⁻¹.

For B6, the Kd was 0.633 nM, the Response worked out at 1.03, the koff amounted to 0.000383 s⁻¹ and the association rate constant (kon) was 605000 M⁻¹ s⁻¹.

Consider B7, for which the equilibrium dissociation constant (Kd) came out at 0.721 nM, the Response stood at 1.15, the off-rate constant (koff) worked out at 0.000374 s⁻¹ and the kon turned out to be 519000 M⁻¹ s⁻¹.

In turn, B8 showed a Kd of 0.483 nM, a Response of 1.13, a koff of 0.000268 s⁻¹ and a kon of 555000 M⁻¹ s⁻¹.

Take B9: the equilibrium dissociation constant (Kd) is 1.6 nM, the Response was 1.19, the dissociation rate constant (koff) stood at 0.000773 s⁻¹ and the on-rate (kon) amounted to 483000 M⁻¹ s⁻¹.

In turn, B10 gave a Kd of 0.687 nM, a Response of 1.16, an off-rate constant (koff) of 0.00037 s⁻¹ and an on-rate constant (kon) of 539000 M⁻¹ s⁻¹.

Take B11: the Kd came out at 0.0861 nM, the Response came out at 0.952, the off-rate constant (koff) worked out at 5.68e-05 s⁻¹ and the on-rate (kon) is 660000 M⁻¹ s⁻¹.

Molecule B12 yielded a Kd of 0.18 nM, a Response of 1.05, a koff of 0.000113 s⁻¹ and an association rate constant (kon) of 627000 M⁻¹ s⁻¹.

Consider B13, for which the Kd came out at 0.103 nM, the Response was 0.981, the koff came to 7.35e-05 s⁻¹ and the kon came to 717000 M⁻¹ s⁻¹.

As for B14, the Kd was 0.469 nM, the Response was 1.18, the koff was found to be 0.000199 s⁻¹ and the kon was 425000 M⁻¹ s⁻¹.

B15 yielded a Kd of 0.283 nM, a Response of 1.11, a koff of 0.000161 s⁻¹ and a kon of 569000 M⁻¹ s⁻¹.

On to B16, for which the Kd was 0.684 nM, the Response was 1.23, the dissociation rate constant (koff) was 0.000375 s⁻¹ and the on-rate constant (kon) worked out at 549000 M⁻¹ s⁻¹.

On to B17, for which the dissociation constant (Kd) is 0.601 nM, the Response turned out to be 1.02, the koff came to 0.000314 s⁻¹ and the kon amounted to 522000 M⁻¹ s⁻¹.

Regarding B18, the dissociation constant Kd came out at 0.286 nM, the Response stood at 1.11, the koff came out at 0.000169 s⁻¹ and the kon is 590000 M⁻¹ s⁻¹.

Take B19: the dissociation constant (Kd) amounted to 0.135 nM, the Response stood at 0.978, the koff was found to be 9.35e-05 s⁻¹ and the kon is 693000 M⁻¹ s⁻¹.

On to B20, for which the Kd was found to be 0.795 nM, the Response came out at 1.17, the koff was 0.000198 s⁻¹ and the on-rate constant (kon) turned out to be 249000 M⁻¹ s⁻¹.

Turning to B21, the Response is 0.107.

The target of the next test is cyno MSLN (Macaca fascicularis). The test is described as follows: BLI (Octet), bsAb in 1+1 Fab-scFv-Fc format.
In the case of B5, the Kd turned out to be 0.0938 nM, the Response was 0.737, the off-rate constant (koff) worked out at 5.74e-05 s⁻¹ and the on-rate constant (kon) is 612000 M⁻¹ s⁻¹.

In the case of B6, the dissociation constant (Kd) is 1.2 nM, the Response was 0.948, the koff was found to be 0.000762 s⁻¹ and the association rate constant (kon) is 634000 M⁻¹ s⁻¹.

B7 yielded a Kd of 0.62 nM, a Response of 1.09, a koff of 0.000321 s⁻¹ and a kon of 518000 M⁻¹ s⁻¹.

For B8, the Kd is 0.414 nM, the Response was found to be 1.03, the off-rate (koff) is 0.00023 s⁻¹ and the kon is 555000 M⁻¹ s⁻¹.

In turn, B9 displayed a dissociation constant (Kd) of 1.66 nM, a Response of 1.1, a koff of 0.000822 s⁻¹ and a kon of 495000 M⁻¹ s⁻¹.

As for B10, the dissociation constant Kd was found to be 0.585 nM, the Response turned out to be 1.06, the koff was determined as 0.000337 s⁻¹ and the association rate constant (kon) turned out to be 575000 M⁻¹ s⁻¹.

The molecule B11 returned a Kd of 0.0297 nM, a Response of 0.849, a koff of 2.01e-05 s⁻¹ and a kon of 676000 M⁻¹ s⁻¹.

Regarding B12, the Kd is 0.163 nM, the Response is 0.941, the koff came to 0.0001 s⁻¹ and the on-rate constant (kon) stood at 616000 M⁻¹ s⁻¹.

The molecule B13 showed a Kd of 0.155 nM, a Response of 0.95, a koff of 0.000105 s⁻¹ and a kon of 676000 M⁻¹ s⁻¹.

B14 came in with a dissociation constant Kd of 0.395 nM, a Response of 1.07, a koff of 0.000157 s⁻¹ and a kon of 399000 M⁻¹ s⁻¹.

B15 gave a Kd of 0.223 nM, a Response of 1.04, a koff of 0.000128 s⁻¹ and a kon of 575000 M⁻¹ s⁻¹.

Consider B16, for which the dissociation constant (Kd) was 0.603 nM, the Response worked out at 1.11, the koff was determined as 0.000342 s⁻¹ and the kon amounted to 566000 M⁻¹ s⁻¹.

As for B17, the Kd worked out at 0.254 nM, the Response is 0.891, the koff turned out to be 0.000146 s⁻¹ and the kon was 576000 M⁻¹ s⁻¹.

In the case of B18, the dissociation constant Kd worked out at 0.255 nM, the Response was 1, the off-rate (koff) came to 0.000151 s⁻¹ and the association rate constant (kon) amounted to 592000 M⁻¹ s⁻¹.

In turn, B19 displayed an equilibrium dissociation constant (Kd) of 0.189 nM, a Response of 0.867, a koff of 0.000125 s⁻¹ and a kon of 660000 M⁻¹ s⁻¹.

Molecule B20 came in with an equilibrium dissociation constant (Kd) of 0.7 nM, a Response of 1.11, a koff of 0.000166 s⁻¹ and a kon of 238000 M⁻¹ s⁻¹.

Molecule B21 showed a Response of 0.0728.
